Reference: publication PMC3094755, “The DNA-Binding Domain of Human PARP-1 Interacts with DNA Single-Strand Breaks as a Monomer through Its Second Zinc Finger”

Columns and labels:
[1] = target: T1, PARP-1 F1+F2 (24-kDa DBD) (Homo sapiens, UniProt P09874 1-214); experiment: EMSA; 400 nM DNA; FA: 50 mM Tris-HCl pH 7, 150 uM ZnSO4, 4 mM DTT, 0-200 mM NaCl, 25 C, 10 nM DNA (mutants 25 nM DNA, 25 mM NaCl); EMSA: 50 mM Tris-HCl pH 7.4, 150 uM ZnSO4, 4 mM DTT, 10% glycerol, RT incubation, gel at 4 C; NMR complexes: 50 mM Tris pH 7.0, 150 uM ZnSO4, 4 mM DTT, 37 C; conditions: protein: recombinant; single-chain dumbbell, 18 bp with central nick, two tetraloops
PARP-1 F2 = PARP-1 F2 (Homo sapiens, UniProt P09874 103-214); experiment: EMSA; 400 nM DNA; slightly less than F1+F2; FA: 50 mM Tris-HCl pH 7, 150 uM ZnSO4, 4 mM DTT, 0-200 mM NaCl, 25 C, 10 nM DNA (mutants 25 nM DNA, 25 mM NaCl); EMSA: 50 mM Tris-HCl pH 7.4, 150 uM ZnSO4, 4 mM DTT, 10% glycerol, RT incubation, gel at 4 C; NMR complexes: 50 mM Tris pH 7.0, 150 uM ZnSO4, 4 mM DTT, 37 C; conditions: protein: recombinant; single-chain dumbbell with 1-nt gap, two tetraloops
PARP-1 F2 K131I/G135D = PARP-1 F2 K131I/G135D (Homo sapiens, UniProt P09874 103-214, K131I;G135D); experiment: EMSA; 400 nM DNA; FA: 50 mM Tris-HCl pH 7, 150 uM ZnSO4, 4 mM DTT, 0-200 mM NaCl, 25 C, 10 nM DNA (mutants 25 nM DNA, 25 mM NaCl); EMSA: 50 mM Tris-HCl pH 7.4, 150 uM ZnSO4, 4 mM DTT, 10% glycerol, RT incubation, gel at 4 C; NMR complexes: 50 mM Tris pH 7.0, 150 uM ZnSO4, 4 mM DTT, 37 C; conditions: protein: recombinant; single-chain dumbbell with 1-nt gap, two tetraloops
PARP-1 F2 R138I = PARP-1 F2 R138I (Homo sapiens, UniProt P09874 103-214, R138I); experiment: as above; conditions: protein: recombinant; single-chain dumbbell with 1-nt gap, two tetraloops
[2] = target: T1, PARP-1 F1+F2 (24-kDa DBD); experiment: as above; conditions: protein: recombinant; single-chain dumbbell with 1-nt gap, two tetraloops
PARP-1 F2 K141I/K142I = PARP-1 F2 K141I/K142I (Homo sapiens, UniProt P09874 103-214, K141I;K142I); experiment: as above; conditions: protein: recombinant; single-chain dumbbell with 1-nt gap, two tetraloops
[3] = target: T1, PARP-1 F1+F2 (24-kDa DBD); experiment: NMR; 1:1 complex; FA: 50 mM Tris-HCl pH 7, 150 uM ZnSO4, 4 mM DTT, 0-200 mM NaCl, 25 C, 10 nM DNA (mutants 25 nM DNA, 25 mM NaCl); EMSA: 50 mM Tris-HCl pH 7.4, 150 uM ZnSO4, 4 mM DTT, 10% glycerol, RT incubation, gel at 4 C; NMR complexes: 50 mM Tris pH 7.0, 150 uM ZnSO4, 4 mM DTT, 37 C; conditions: protein: recombinant; single-chain dumbbell with 1-nt gap, two tetraloops
[4] = target: T1, PARP-1 F1+F2 (24-kDa DBD); experiment: fluorescence anisotropy; 0; 50 mM Tris-HCl pH 7.0, 150 uM ZnSO4, 4 mM DTT, 25 C; NaCl 0-200 mM (T2, as in cof; 10 nM DNA) or 25 mM (T3 mutants; 25 nM DNA); conditions: protein: recombinant, label: fluorescein-dT at T8 and T30, two tetraloops
[5] = target: T1, PARP-1 F1+F2 (24-kDa DBD); experiment: fluorescence anisotropy; 75; 50 mM Tris-HCl pH 7.0, 150 uM ZnSO4, 4 mM DTT, 25 C; NaCl 0-200 mM (T2, as in cof; 10 nM DNA) or 25 mM (T3 mutants; 25 nM DNA); conditions: protein: recombinant, label: fluorescein-dT at T8 and T30, two tetraloops
[6] = target: T1, PARP-1 F1+F2 (24-kDa DBD); experiment: fluorescence anisotropy; 50; 50 mM Tris-HCl pH 7.0, 150 uM ZnSO4, 4 mM DTT, 25 C; NaCl 0-200 mM (T2, as in cof; 10 nM DNA) or 25 mM (T3 mutants; 25 nM DNA); conditions: protein: recombinant, label: fluorescein-dT at T8 and T30, two tetraloops
[7] = target: T1, PARP-1 F1+F2 (24-kDa DBD); experiment: fluorescence anisotropy; 150; 50 mM Tris-HCl pH 7.0, 150 uM ZnSO4, 4 mM DTT, 25 C; NaCl 0-200 mM (T2, as in cof; 10 nM DNA) or 25 mM (T3 mutants; 25 nM DNA); conditions: protein: recombinant; label: fluorescein-dT at T8 and T30; single-chain dumbbell with central nick, two tetraloops
[8] = target: T1, PARP-1 F1+F2 (24-kDa DBD); experiment: fluorescence anisotropy; 100; 50 mM Tris-HCl pH 7.0, 150 uM ZnSO4, 4 mM DTT, 25 C; NaCl 0-200 mM (T2, as in cof; 10 nM DNA) or 25 mM (T3 mutants; 25 nM DNA); conditions: protein: recombinant, label: fluorescein-dT at T8 and T30, two tetraloops
[9] = target: T1, PARP-1 F1+F2 (24-kDa DBD); experiment: fluorescence anisotropy; 25; 50 mM Tris-HCl pH 7.0, 150 uM ZnSO4, 4 mM DTT, 25 C; NaCl 0-200 mM (T2, as in cof; 10 nM DNA) or 25 mM (T3 mutants; 25 nM DNA); conditions: protein: recombinant, label: fluorescein-dT at T8 and T30, two tetraloops
[10] = target: T1, PARP-1 F1+F2 (24-kDa DBD); experiment: fluorescence anisotropy; 200; 50 mM Tris-HCl pH 7.0, 150 uM ZnSO4, 4 mM DTT, 25 C; NaCl 0-200 mM (T2, as in cof; 10 nM DNA) or 25 mM (T3 mutants; 25 nM DNA); conditions: protein: recombinant; label: fluorescein-dT at T8 and T30; single-chain dumbbell with central nick, two tetraloops
[11] = single-chain dumbbell with central nick
[12] = circular closed dumbbell, no nick

T1 sequence (P09874 1-214): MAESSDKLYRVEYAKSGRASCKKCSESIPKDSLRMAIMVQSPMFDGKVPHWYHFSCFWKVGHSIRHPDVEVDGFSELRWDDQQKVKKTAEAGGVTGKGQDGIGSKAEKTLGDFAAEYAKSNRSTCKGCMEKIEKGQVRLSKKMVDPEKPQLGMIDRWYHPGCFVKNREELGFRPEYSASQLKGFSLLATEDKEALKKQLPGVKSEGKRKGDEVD
Sequence of PARP-1 F2 K131I/G135D (P09874 103-214 K131I/G135D): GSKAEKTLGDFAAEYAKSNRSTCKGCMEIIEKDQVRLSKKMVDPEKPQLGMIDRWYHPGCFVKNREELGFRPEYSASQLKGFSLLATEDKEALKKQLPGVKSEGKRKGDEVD
Sequence of PARP-1 F2 (P09874 103-214): as the sequence (P09874 103-214 K131I/G135D) above, with I29K, D33G counted along it
Sequence of PARP-1 F2 K141I/K142I (P09874 103-214 K141I/K142I): as the sequence (P09874 103-214 K131I/G135D) above, with I29K, D33G, K39I, K40I counted along it
Sequence of PARP-1 F2 R138I (P09874 103-214 R138I): as the sequence (P09874 103-214 K131I/G135D) above, with I29K, D33G, R36I counted along it

CGGTCGATCGTAAGATCGACCGGCGCTGGAGCTTGCTCCAGCGC (structured_DNA, 5'-phosphate) [44-nt nicked dumbbell, 5'-phosphate] was tested, and the binding signal [1] was ~2 fold weaker than gapped ligand.

CGGTCGATCGTAAGATCGACCGTGCGCTGGAGCTTGCTCCAGCGC (structured_DNA, 5'-phosphate) [45-nt gapped dumbbell, 5'-phosphate]: binds (PARP-1 F2); no binding (PARP-1 F2 K131I/G135D); no binding (PARP-1 F2 R138I). CGGTCGATCGTAAGATCGACCGTGCGCTGGAGCTTGCTCCAGCGC (structured_DNA, 5'-phosphate) [45-nt gapped dumbbell, 5'-phosphate]: binds [2]; no binding (PARP-1 F2 K141I/K142I).

CGGTCGATCGTAAGATCGACCGTGCGCTGGAGCTTGCTCCAGCGC (structured_DNA, 3'-phosphate) [45-nt gapped dumbbell, 3'-phosphate]: binds [3].

CGGTCGATCGTAAGATCGACCGTGCGCTGGAGCTTGCTCCAGCGC (structured_DNA, 5'-deoxyribose (printed as 5' ribose in text)) [45-nt gapped dumbbell, 5'-ribosylated]: binds [3].

CGGTCGATCGTAAGATCGACCGCGGTCGATCGTAAGATCGACCG (structured_DNA, 5'-phosphate) [44-nt nicked symmetric dumbbell, 5'-phosphate, 2x fluorescein-dT] showed a Kd [4, 11] of 48.6 nM, a Kd [5, 11] of 62.4 nM and a Kd [6, 11] of 56.1 nM. The Kd [7] was 52.4 nM, the Kd [8, 11] was 56.9 nM and the Kd [9, 11] was 54.2 nM. It also gave a Kd [10] of 46.2 nM.

With CGGTCGATCGTAAGATCGACCGCGGTCGATCGTAAGATCGACCG (structured_DNA, circular, nick sealed by T4 DNA ligase) [ligated (circular) symmetric 44-nt dumbbell, 2x fluorescein-dT] the Kd [4, 12] was 117 nM, the Kd [5, 12] was 480 nM and the Kd [6, 12] was 166 nM. For the same binder, the Kd [8, 12] was 1110 nM and the Kd [9, 12] was 134 nM.
